Measured values reported in the supplement of paper PMC7877785.
± gives the uncertainty stated by the source.

Assay: self-splicing fitness, log relative to wild type (ln ratio); higher = more splicing; Tetrahymena group I intron in knt gene, E. coli kanamycin selection, DiMSum; sequences stand for … in CUCUCU…GGAGGGAAAAGUUAUCAGGCAUGCACCUGGUAGCUAGUCUUUAAACCAAUAGAUUGCAUCGGUUUAAAAGGCAAGACCGUCAAAUUGCGGGAAAGGGGUCAACAGCCGUUCAGUACCAAGUCUCAGGGGAAACUUUGAGAUGGCCUUGCAAAGGGUAUGGUAAUAAGCUGACGGACAUGGUCCUAACCACGCAGCCAAGUCCUAAGUCAACAGAUCUUCUGUUGAUAUGGAUGCAGUUCACAGACUAAAUGUCGGUCGGGGAAGAUGUAUUCUUCUCAUAAGAUAUAGUCGGACCUCUCCUUAAUGGGAGCUAGCGGAUGAAGUGAUGCAACACUGGAGCCGCUGGGAACUAAUUUGUAUGCGAAAGUAUAUUGAUUAGUUUUGGAGUACUCGUGGUCG
Outline: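 Six replicate transformations of E. coli BL21(DE3) with a pET-22b(+) library were grown overnight at 37°C or 30°C. The library randomised all eight P1ex-region intron nucleotides, the intron lying in the knt kanamycin-resistance gene, and plates were LB agar with or without 25 μg/mL kanamycin plus 100 μg/mL carbenicillin, 50 μM IPTG and 0.2% rhamnose. Pooled colonies were amplicon-sequenced on an Illumina HiSeq 2500, and fitness is the DiMSum error-weighted combination of wild-type-normalised replicate fold changes, kanamycin versus none.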

Sequence	self-splicing fitness (ln) (30 °C)	self-splicing fitness (ln) (37 °C)
UUCCAGCAAUAUUACGGUUA	0.496 ± 0.085	0.423 ± 0.087
UUCCAGCAAUAUUACGUAAG	-1.42 ± 0.066	-0.28 ± 0.095
UUCCAGCAAUAUUACGUAAU	-2.36 ± 0.11	-0.639 ± 0.12
UUCCAGCAAUAUUACGUAUA	-1.01 ± 0.17	-1.26 ± 0.16
UUCCAGCAAUAUUACGUCAA	-1.3 ± 0.1	-0.233 ± 0.12
UUCCAGCAAUAUUACGUGAU	-1.08 ± 0.044	-0.294 ± 0.063
UUCCAGCAAUAUUACGUUUG	-4.67 ± 0.46	-2.83 ± 0.24
UUCGAGCAAUAUUACGACAA	-0.778 ± 0.23	0.45 ± 0.23
UUCGAGCAAUAUUACGACCU	-1.7 ± 0.43	1.25 ± 0.38
UUCGAGCAAUAUUACGACGC		-2.67 ± 0.48
UUCGAGCAAUAUUACGAGAC	-0.119 ± 0.49	
UUCGAGCAAUAUUACGAGUU	-1.62 ± 0.18	-0.549 ± 0.17
UUCGAGCAAUAUUACGAUGG	-3.47 ± 0.26	-1.45 ± 0.33
UUCGAGCAAUAUUACGCAAU		-2.13 ± 0.43
UUCGAGCAAUAUUACGCGUG	-1.06 ± 0.13	-0.676 ± 0.14
UUCGAGCAAUAUUACGGAGU		-2.26 ± 0.32
UUCGAGCAAUAUUACGGAUC		-1.85 ± 0.48
UUCGAGCAAUAUUACGGAUG	-3.22 ± 0.38	-2.86 ± 0.32
UUCGAGCAAUAUUACGGCAU	-2.95 ± 0.27	-1.44 ± 0.19
UUCGAGCAAUAUUACGGCGU	-1.44 ± 0.16	-0.438 ± 0.19
UUCGAGCAAUAUUACGGGCA	-2.27 ± 0.17	-0.711 ± 0.15
UUCGAGCAAUAUUACGGUGG	-3.36 ± 0.27	-1.07 ± 0.19
UUCGAGCAAUAUUACGGUUU	-4.44 ± 0.36	-1.93 ± 0.22
UUCGAGCAAUAUUACGUCGG	-2.96 ± 0.28	-1.78 ± 0.29
UUCGAGCAAUAUUACGUCUC	-4.02 ± 0.47	-2 ± 0.16
UUCGAGCAAUAUUACGUGAC	-3.65 ± 0.24	-3.28 ± 0.27
UUCGAGCAAUAUUACGUUCG	-3.75 ± 0.24	-2.32 ± 0.27

Sequence	self-splicing fitness (ln) (30 °C)	self-splicing fitness (ln) (37 °C)
UUCUAGCAAUAUUACGAAGA	-1.99 ± 0.19	-1.61 ± 0.21
UUCUAGCAAUAUUACGAAGU		-0.603 ± 0.25
UUCUAGCAAUAUUACGAAUC		-1.98 ± 0.25
UUCUAGCAAUAUUACGAAUU	-2.96 ± 0.23	-1.58 ± 0.18
UUCUAGCAAUAUUACGACAU	-2.324 ± 0.019	-1.57 ± 0.034
UUCUAGCAAUAUUACGCAGC		-0.431 ± 0.2
UUCUAGCAAUAUUACGCCAA	-1.75 ± 0.21	-0.272 ± 0.2
UUCUAGCAAUAUUACGCCCG	-1.09 ± 0.27	-0.74 ± 0.4
UUCUAGCAAUAUUACGCGAA	-2.25 ± 0.21	-1.3 ± 0.2
UUCUAGCAAUAUUACGCUAA	-2.53 ± 0.21	-0.91 ± 0.14
UUCUAGCAAUAUUACGCUAC	-2.37 ± 0.38	
UUCUAGCAAUAUUACGCUGU	-2.17 ± 0.17	-1.63 ± 0.2
UUCUAGCAAUAUUACGGAUG	-1.05 ± 0.098	-0.888 ± 0.13
UUCUAGCAAUAUUACGGCUU	-3.3 ± 0.39	-2.22 ± 0.28
UUCUAGCAAUAUUACGGGUG	-0.114 ± 0.078	0.281 ± 0.11
UUCUAGCAAUAUUACGGUCC		-2.46 ± 0.39
UUCUAGCAAUAUUACGGUGG	-4.34 ± 0.39	-2.5 ± 0.26
UUCUAGCAAUAUUACGGUUG	-1.64 ± 0.11	-1.78 ± 0.17
UUCUAGCAAUAUUACGUACA	-1.39 ± 0.19	-0.376 ± 0.22
UUCUAGCAAUAUUACGUACG	-1.82 ± 0.14	-0.281 ± 0.14
UUCUAGCAAUAUUACGUCUG	-2.22 ± 0.12	-2.49 ± 0.21
UUCUAGCAAUAUUACGUGAG	-0.386 ± 0.06	-0.345 ± 0.11
UUCUAGCAAUAUUACGUGCG	-1.98 ± 0.14	-2.14 ± 0.13
UUCUAGCAAUAUUACGUGUU	-3.36 ± 0.17	-3.2 ± 0.19
UUCUAGCAAUAUUACGUUAG	-3.63 ± 0.29	-2.67 ± 0.37
UUCUAGCAAUAUUACGUUCA	-0.579 ± 0.16	-1.11 ± 0.18
UUCUAGCAAUAUUACGUUCG	-2.17 ± 0.14	-1.29 ± 0.16

Sequence	self-splicing fitness (ln) (30 °C)	self-splicing fitness (ln) (37 °C)
UUGAAGCAAUAUUACGAAGC	-3.4 ± 0.3	-2.48 ± 0.49
UUGAAGCAAUAUUACGCAGA	-0.643 ± 0.13	0.228 ± 0.11
UUGAAGCAAUAUUACGCAGG	-1.15 ± 0.092	-0.283 ± 0.098
UUGAAGCAAUAUUACGCCUC		-1.63 ± 0.42
UUGAAGCAAUAUUACGCUGU	-1.96 ± 0.14	-1.84 ± 0.16
UUGAAGCAAUAUUACGCUUA	-1.17 ± 0.083	-0.467 ± 0.093
UUGAAGCAAUAUUACGGAUU	-1.18 ± 0.081	-0.94 ± 0.12
UUGAAGCAAUAUUACGGCUA	-0.00358 ± 0.093	-0.295 ± 0.096
UUGAAGCAAUAUUACGGUCA	-0.522 ± 0.075	-0.262 ± 0.099
UUGAAGCAAUAUUACGUAGU	-1.97 ± 0.12	-1.54 ± 0.12
UUGAAGCAAUAUUACGUAUG	-0.752 ± 0.079	-0.391 ± 0.11
UUGAAGCAAUAUUACGUCUU	-3.1 ± 0.18	-1.24 ± 0.12
UUGAAGCAAUAUUACGUUCA	0.472 ± 0.094	0.134 ± 0.11
UUGAAGCAAUAUUACGUUUA	-1.08 ± 0.062	-0.682 ± 0.084
UUGCAGCAAUAUUACGAAAA	-1.02 ± 0.12	-0.432 ± 0.12
UUGCAGCAAUAUUACGAACG	-0.781 ± 0.19	-0.482 ± 0.2
UUGCAGCAAUAUUACGACCG	-0.719 ± 0.065	-0.144 ± 0.093
UUGCAGCAAUAUUACGACCU	-0.892 ± 0.1	-0.129 ± 0.15
UUGCAGCAAUAUUACGACGC	-3.11 ± 0.46	
UUGCAGCAAUAUUACGAGAG	-3.54 ± 0.23	-1.36 ± 0.21
UUGCAGCAAUAUUACGAGCG	-1.14 ± 0.15	-0.665 ± 0.15
UUGCAGCAAUAUUACGCCAG	-0.879 ± 0.13	0.0127 ± 0.2
UUGCAGCAAUAUUACGCCGA	-0.318 ± 0.11	-0.371 ± 0.12
UUGCAGCAAUAUUACGCCGU	-3.46 ± 0.36	-1.41 ± 0.3
UUGCAGCAAUAUUACGGCAU	-2.44 ± 0.19	-1.19 ± 0.1
UUGCAGCAAUAUUACGGCGA	-1.53 ± 0.12	-0.929 ± 0.14
